B1: S8-ATX1B6 (antibody, V domains shown)
VH: QVQLVESGGGVVLPGRSLRLSCAASGFTFNIYGMHWVRQAPGKGLEWVAVISYDGNNKEYADSVKGRFTISRDSSRNTLYLQMNSLRAEDTAVYYCAKRGYGSSSLEFWGQGTLVTVSS
VL: DIQMTQSPSSLSASVGDRVTITCRSSQDIRNDLGWYQQKPGKAPKRLIYASSNLQSGVPSRFSGSGSGTEFTLTISSLQPDDFATYYCLQHNTYPYTFGQGTKLEIK
B2: S8-ATX1B4 (antibody, V domains shown)
VH: QVQLVESGGGVVQPGRSLRLSCAASGFTFSIYGMHWVRQAPGKGLEWVAVISYDGNNKDYTDSVKGRFTISRDNSKNTLYLQMNSLTAEDTAVYYCAKRGYGSSSLEFWGQGTLVTVSS
VL: DIQMTQSPSSLSASVGDRVTITCRASQDIRNDLGWYQQKPGKAPKRLIYATSSLQSGVPSRFSGSRSGAEFTLTVSSLQPEDFATYYCLQHNTYPYTFGQGTKLEIK
B3: S8-ATX2F10 (antibody, V domains shown)
VH: EVQLVESGGDLVKSGGSLRLSCAASGFTFSDAWMSWVRQAPGKGLEWVGRIQSKTDGGTTDYVAPVKGRFTISRDDSKDTLYLHMNSLTTEDTAVYYCTTDLYYYGSGSYFLGQGTLVTVSS
VL: DIQMTQSPSSLSASVGDRVTITCRASQNIITYLNWYQQKPGKAPKLLIYAASSLQSGVPSRFSGSGSGTDFTLTISSLQPEDFAIYHCQQSYNVPTTFGQGTKLEIK
B4: S8-ATX1E4 (antibody, V domains shown)
VH: QVQLVQSGSELKKPGASVKVSCKTSGYTFTSYAMNWVRQAPGQGLEWMGWINTNTGNPTYAQGFRGRFVFSLDTSVSTAYLQISSLKAEDTAVYYCARDKYSSSWYWFDSWGQGTLVTVSS
VL: DIQMTQSPSSLSASVGDRVTITCRPSQNISSYLNWYQQKPGKAPKLLIYAASSLRSGVPSRFSGSGSGTDFTLTVSSLQPEDFANYYCQQSYSTPYTFGRGTKLEIK
B5: S8-ATX1E2 (antibody, V domains shown)
VH: EVQLVESGGGLVKPGESLRLSCAASGFTFSNAWMSWVRQAPGKGLEWVGRDGGARDYAAPVKGRFTISRDDSKNTLYLQMNTLKTEDTAVYYCTKGAFFFDYWGQGTLVTVSS
VL: EIVLTQSPGTLSLSPGERATLSCRASQSVISGYLAWYQQKPGQAPRLLIYGASRRATGITDRFSGSGSGTDFTLIISRLEPEDSAVYYCQQYDSSPRTFGQGTKVEIK
B6: S8-ATX1H4 (antibody, V domains shown)
VH: QVQLVQSGTEVKYPGASVKVSCKASGYTFIDYGISWVRQAPGQGLEWMGWISAYNGNTDYAQKLQGRVTMTTDTSTSTAYMDLRSLRSDDTAVYYCAREGEGYCTYGVCPSFDYWGQGTLVTVSS
VL: EIVLTQSPGTLSLSPGERATLSCRASQSVSSSYLAWYQQKPGQAPRLLIYGASTRGTGIPDRFSGSGSGTDFTLTISRLEPEDFALYYCQQYGSSPYTFGQGTKLEIK
B7: S8-ATX1E1 (antibody, V domains shown)
VH: EVQLVESGGGLVQPGRSLRLSCAASGFMFDDYVMHWVRQAPGKGLEWVSGINWNSDNIGYADSVKGRFTISRDNAKNSLFLQMNSLRVEDTALYYCAKDIDAAAFDYWGQGTLVTVSS
VL: DIVMTQSPLSLPVTPGEPASISCRSSQSLLHSNGYSYLAWYLQKPGQSPQLLIYLVSNRASGVPDRFTGSGSGTDFTLKISRVEAEDVGVYYCMQALQTPWTFGQGTKVEIK
B8: S8-ATX2G9 (antibody, V domains shown)
VH: EVQLVESGGGVVRPGGSLRLSCAASGFTFDDYGMSWVRQAPGKGLEWVSGINWNGGSTGYADSVKGRFSISRDNAKNSLYLQMNSLRAEDTALYYCAREGITILRGVIIEDWYFDLWGRGTLVIVSS
VL: not shown
B9: S8-ATX2B11 (antibody, V domains shown)
VH: EVQLVESGGGVVRPGGSLRLSCAASGFTLDDYGMSWVRQAPGKGLEWVSGINWNGATTDYADSVKGRFSISRDNAKNSVYLQMNSLRAEDTALYYCAREGITMVRGVIIEDWYFDLWGRGTLVTVSS
VL: not shown
B10: S8-ATX2A3 (antibody, V domains shown)
VH: QVQLQESGPGLVKPSETLSLTCTVSGASISGYYWNWIRQPPGKGLEWIGYIHYSGTTNYNPSLKSRITISLDTSENQFSLRLSSVTAADTAVYYCARDWYTGYDWEGFDYWGQGTLVTVSS
VL: QSVLTQPPSVSGAPGQRVSFSCTGTSSNIGTGFDVHWYRQLPGTAPKVLIYNNNNRPSGVPDRFSASKSGTSASLAITGLQAEDEADYYCQSYDSSLSGSVFGGGTRLTVL

Broadly, the Kd is the free concentration of one partner at which half of the binding sites on the other are occupied at equilibrium, for simple one-to-one binding. Lower therefore signals higher affinity.

The target in this test is full-length human Siglec-8 (Siglec-8^FL) (human, UniProt Q9NYZ4 17-499). Nature of the test: BLI. (BLI is a label-free optical method that tracks binding on a fibre tip over time.)
Chain of full-length human Siglec-8 (Siglec-8^FL) (Q9NYZ4 17-499): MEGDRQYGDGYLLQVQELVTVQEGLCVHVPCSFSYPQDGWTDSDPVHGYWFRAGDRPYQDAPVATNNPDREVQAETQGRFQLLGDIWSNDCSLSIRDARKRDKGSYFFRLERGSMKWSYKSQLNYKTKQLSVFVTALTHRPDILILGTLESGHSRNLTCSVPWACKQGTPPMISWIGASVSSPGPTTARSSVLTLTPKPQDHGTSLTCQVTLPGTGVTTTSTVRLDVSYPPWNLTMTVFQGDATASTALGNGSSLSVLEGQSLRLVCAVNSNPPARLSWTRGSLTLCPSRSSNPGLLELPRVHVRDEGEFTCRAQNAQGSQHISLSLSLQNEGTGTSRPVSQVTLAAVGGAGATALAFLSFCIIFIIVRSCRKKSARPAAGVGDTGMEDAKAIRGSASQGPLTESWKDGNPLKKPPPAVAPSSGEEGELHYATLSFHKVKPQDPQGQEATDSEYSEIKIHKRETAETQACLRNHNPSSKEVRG
Take B1: the equilibrium dissociation constant (Kd) came out at 0.00219 nM.
In turn, B2 returned a Kd of 0.502 nM.
In the case of B3, binding was put at a Kd of 100 nM.
B4: the Kd came out at 0.917 nM.
Then B5, with 0.655 nM; and B6, with less than 0.001 nM; and B7, with 0.589 nM.
For B8, the Kd was found to be 0.00413 nM.
Molecule B9 had a Kd of 10 nM.
For B10 the value was less than 0.001 nM.

Values taken from patent US20250034245A1 (published 2025).
